The assay addresses T1, SARS-CoV-2 wild-type RBD (SARS-CoV-2 wild-type).
T1 construct: also called WT-RBD
Put plainly: crystal structure. The following applies: both partners purified.

B1: P5-1H1 Fab (Fab, V domains shown)
VH: EVQLVESGGGLIQPGGSLRLSCAASGITVSSNYMTWVRQPPGKGLEWVSVIYSGGSTFYADPVKGRFTISRDNSRNTLYLQMNSLRAEDTAVYYCARDLQVYGMDVWGQGTTVTVSS
VL: DIQLTQSPSFLSASVGDRVTITCRASQGISNFLAWYQQKPGKAPKLLIYAASTLQGGVPSTFSGSGSGTEFTLTISSLQPEDFATYYCQHLNDYPLFGGGTRVEIK
As for B1, the binding result is recorded as “binds”.
